Experimental data published in publication PMC8016914.

Target: T1, PsbS modified to contain a strep-tag at the C terminus (Arabidopsis thaliana), Q9XF91
T1 chain: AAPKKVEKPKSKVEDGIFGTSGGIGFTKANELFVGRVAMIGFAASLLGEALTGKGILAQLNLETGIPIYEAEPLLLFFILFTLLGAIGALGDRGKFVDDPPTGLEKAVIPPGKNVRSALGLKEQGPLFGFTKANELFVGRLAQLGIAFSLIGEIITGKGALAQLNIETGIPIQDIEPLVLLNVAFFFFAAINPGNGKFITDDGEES
Assay: SDS-PAGE and immunoblot; PsbS in detergent and in LHCII + PsbS proteoliposomes (thylakoid lipids); monomeric (M) and dimeric (D) bands detected with an anti-PsbS antibody
Conditions: remark: other sources report otherwise

stoichiometry N: 2
B1: PsbS modified to contain a strep-tag at the C terminus, Q9XF91 60-265 (natural protein)
chain: T1 chain
